# In US20240116985A1 (published 2024):
# Starred links: 1 amine or outer side, 2 acyl side, 3 side chain; linkers in the order of their positions; H or OH if unused. Positions of bridges follow the written chain, without caps; N, C: chain ends. Non-standard residues stand in square brackets, D forms with d. Primed or numbered codes have the meaning given here. B5(15) = 2-amino-2-(pent-4-en-1-yl)hept-6-enoic acid (2,2-bis(4-pentenyl)glycine), stitching residue bearing two staples, C=CCCCC(CCCC=C)(N[*:1])C(=O)[*:2]; PyrS2″ = (S)-3-amino-1-((pent-4-en-1-yloxy)carbonyl)pyrrolidine-3-carboxylic acid (stapling residue), C=CCCCOC(=O)N1CC[C@@](N[*:1])(C(=O)[*:2])C1; B5(4) = 2,2-bis(4-pentenyl)glycine = 2-amino-2-(pent-4-en-1-yl)hept-6-enoic acid (stitching residue), C=CCCCC(CCCC=C)(N[*:1])C(=O)[*:2]; B5(5) = 2,2-bis(4-pentenyl)glycine, 2-amino-2-(pent-4-en-1-yl)hept-6-enoic acid (stitching residue), C=CCCCC(CCCC=C)(N[*:1])C(=O)[*:2]; PyrS2 = (S)-3-amino-1-((pent-4-en-1-yloxy)carbonyl)pyrrolidine-3-carboxylic acid, C=CCCCOC(=O)N1CC[C@@](N[*:1])(C(=O)[*:2])C1; B5(27) = 2-amino-2-(pent-4-en-1-yl)hept-6-enoic acid (two alkene side-chain arms), C=CCCCC(CCCC=C)(N[*:1])C(=O)[*:2]; F2PipAbu = (S)-2-amino-4-(4,4-difluoropiperidin-1-yl)butanoic acid, O=C([C@H](CCN1CCC(F)(F)CC1)N[*:1])[*:2]; Phe(3-COOH) = N[C@@H](Cc1cccc(C(=O)O)c1)C(=O)O; Bta = N[C@@H](Cc1csc2ccccc12)C(=O)O; αAllylPro = C=CC[C@@]1(C(=O)O)CCCN1; tBuAla = CC(C)(C)C[C@H](N)C(=O)O; 3Thi = N[C@@H](Cc1ccsc1)C(=O)O; S8 = C=CCCCCCC[C@](C)(N)C(=O)O; hLeu = CC(C)CC[C@H](N)C(=O)O; hSer = N[C@@H](CCO)C(=O)O
# T1: B-cat-Halo (beta-catenin HaloTag NanoBRET construct expressed in HEK293 cells) (UniProt P35222 1-781, HaloTag NanoBRET 618 Ligand bound to the HaloTag)
# T1 sequence (looked up): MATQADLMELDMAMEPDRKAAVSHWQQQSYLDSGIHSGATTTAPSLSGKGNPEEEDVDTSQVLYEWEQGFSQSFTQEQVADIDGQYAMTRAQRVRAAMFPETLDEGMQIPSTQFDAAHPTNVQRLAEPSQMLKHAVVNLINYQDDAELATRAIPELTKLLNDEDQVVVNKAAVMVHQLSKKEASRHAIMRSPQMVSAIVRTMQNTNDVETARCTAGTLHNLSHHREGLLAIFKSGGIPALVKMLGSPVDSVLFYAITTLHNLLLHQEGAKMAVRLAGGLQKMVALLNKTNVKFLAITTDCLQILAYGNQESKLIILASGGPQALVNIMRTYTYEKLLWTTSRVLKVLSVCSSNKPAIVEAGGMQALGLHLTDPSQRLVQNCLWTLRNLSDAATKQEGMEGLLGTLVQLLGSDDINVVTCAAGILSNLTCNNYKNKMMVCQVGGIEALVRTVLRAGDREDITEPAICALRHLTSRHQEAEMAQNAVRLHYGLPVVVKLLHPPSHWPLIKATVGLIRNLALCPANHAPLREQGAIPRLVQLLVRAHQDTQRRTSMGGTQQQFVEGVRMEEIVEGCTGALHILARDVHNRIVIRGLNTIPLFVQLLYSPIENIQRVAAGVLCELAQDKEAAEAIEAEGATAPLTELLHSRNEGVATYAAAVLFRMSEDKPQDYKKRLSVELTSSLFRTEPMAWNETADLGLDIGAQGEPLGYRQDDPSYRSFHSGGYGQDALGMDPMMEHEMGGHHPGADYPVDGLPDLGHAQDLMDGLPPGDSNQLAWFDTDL
# T2: Bcat-Halo (UniProt P35222 1-781)
# T2 sequence (looked up): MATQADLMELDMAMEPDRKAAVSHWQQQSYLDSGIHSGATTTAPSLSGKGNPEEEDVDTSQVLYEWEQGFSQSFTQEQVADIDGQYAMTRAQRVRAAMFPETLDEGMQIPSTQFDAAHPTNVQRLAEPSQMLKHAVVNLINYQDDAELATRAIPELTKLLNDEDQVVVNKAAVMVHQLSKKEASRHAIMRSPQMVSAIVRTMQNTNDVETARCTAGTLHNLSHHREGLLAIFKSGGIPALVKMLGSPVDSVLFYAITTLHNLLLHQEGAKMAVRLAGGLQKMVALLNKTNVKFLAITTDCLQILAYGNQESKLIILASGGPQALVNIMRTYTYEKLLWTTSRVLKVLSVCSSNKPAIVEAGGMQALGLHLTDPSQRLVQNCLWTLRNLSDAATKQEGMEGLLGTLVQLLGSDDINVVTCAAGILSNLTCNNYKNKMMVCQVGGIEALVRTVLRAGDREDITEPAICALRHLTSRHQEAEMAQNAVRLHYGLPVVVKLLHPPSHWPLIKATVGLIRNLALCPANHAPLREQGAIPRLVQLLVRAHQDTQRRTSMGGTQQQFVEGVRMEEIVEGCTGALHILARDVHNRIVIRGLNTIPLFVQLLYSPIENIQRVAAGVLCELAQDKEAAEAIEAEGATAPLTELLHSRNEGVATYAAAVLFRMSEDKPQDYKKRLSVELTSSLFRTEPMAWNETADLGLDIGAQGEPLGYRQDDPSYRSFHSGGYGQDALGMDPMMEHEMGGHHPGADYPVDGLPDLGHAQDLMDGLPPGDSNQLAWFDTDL
# T3: B-cat-Halo (beta-catenin HaloTag NanoBRET construct expressed in HEK293 cells) (UniProt P35222 1-781)
# T3 sequence (looked up): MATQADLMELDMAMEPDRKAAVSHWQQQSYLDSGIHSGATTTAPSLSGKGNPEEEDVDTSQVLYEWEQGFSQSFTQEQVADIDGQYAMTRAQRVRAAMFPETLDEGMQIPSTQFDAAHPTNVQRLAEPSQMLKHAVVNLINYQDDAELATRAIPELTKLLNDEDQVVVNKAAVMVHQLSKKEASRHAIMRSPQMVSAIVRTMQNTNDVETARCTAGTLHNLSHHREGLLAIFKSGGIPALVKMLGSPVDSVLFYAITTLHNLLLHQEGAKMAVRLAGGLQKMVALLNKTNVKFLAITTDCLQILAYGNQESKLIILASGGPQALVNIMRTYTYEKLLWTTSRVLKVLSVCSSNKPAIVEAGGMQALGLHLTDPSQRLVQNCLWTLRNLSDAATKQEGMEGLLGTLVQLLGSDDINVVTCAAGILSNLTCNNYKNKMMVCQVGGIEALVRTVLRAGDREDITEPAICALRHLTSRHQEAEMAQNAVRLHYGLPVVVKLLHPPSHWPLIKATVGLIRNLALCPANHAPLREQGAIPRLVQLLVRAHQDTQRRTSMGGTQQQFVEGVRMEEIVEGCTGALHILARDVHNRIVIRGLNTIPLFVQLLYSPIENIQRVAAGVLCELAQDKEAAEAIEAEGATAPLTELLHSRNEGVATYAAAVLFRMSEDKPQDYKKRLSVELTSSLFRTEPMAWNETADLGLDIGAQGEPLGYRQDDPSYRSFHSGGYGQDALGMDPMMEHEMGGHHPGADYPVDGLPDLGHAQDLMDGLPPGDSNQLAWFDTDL
# Target: T1, B-cat-Halo (beta-catenin HaloTag …)
# Test: cell-based or functional assay
row,Binder,NanoBRET Abs IC50
1,"Ac-[αAllylPro]D[tBuAla][B5(27)]DDA[F2PipAbu]FL[PyrS2][3Thi][Bta]Q-NH2 (staple 1-4, 4-11) [I-1505: Ac-PL3-Asp-Npg-B5-Asp-Asp-Ala-F2PipAbu-Phe-Leu-PyrS2-3Thi-BztA-Gln-NH2]",> 20 µM
2,"Ac-[αAllylPro]DS[B5(5)]DDAAFL[PyrS2″][3Thi][Bta]Q-NH2 (staple 1-4, 4-11) [I-1513: Ac-PL3-Asp-Ser-B5-Asp-Asp-Ala-Ala-Phe-Leu-PyrS2-3Thi-BztA-Gln-NH2]",> 20 µM

# Target: T2, Bcat-Halo
# Test: cell-based or functional assay
row,Binder,NanoBRET Abs IC50
1,"Ac-[αAllylPro]D[tBuAla][B5(4)]DYAA[Phe(3-COOH)][hSer][PyrS2″][3Thi][Bta]Q-NH2 (staple 1-4, 4-11; also: earlier eluting HPLC isomer composition) [I-2124]",38.9 µM
2,"Ac-[αAllylPro]D[tBuAla][B5(4)]DWAA[Phe(3-COOH)][hSer][PyrS2″][3Thi][Bta]Q-NH2 (staple 1-4, 4-11) [I-2128]",27 µM
3,"Ac-[αAllylPro]D[tBuAla][B5(4)]DYAA[Phe(3-COOH)]L[PyrS2″][3Thi][Bta]Q-NH2 (staple 1-4, 4-11) [I-2126]",29.5 µM
4,"Ac-[αAllylPro]D[tBuAla][B5(4)]DWAA[Phe(3-COOH)]N[PyrS2″][3Thi][Bta]Q-NH2 (staple 1-4, 4-11) [I-2127]",40.8 µM
5,"Ac-[αAllylPro]D[tBuAla][B5(4)]DWAA[Phe(3-COOH)]L[PyrS2″][3Thi][Bta]Q-NH2 (staple 1-4, 4-11) [I-2129]",44 µM
6,"Ac-[αAllylPro]D[tBuAla][B5(4)]DYAA[Phe(3-COOH)][hSer][PyrS2″][3Thi][Bta]Q-NH2 (staple 1-4, 4-11; also: later eluting HPLC isomer composition) [I-2125]",41.2 µM
7,"Ac-[αAllylPro]D[tBuAla][B5(4)]DHAA[Phe(3-COOH)]L[PyrS2″][3Thi][Bta]Q-NH2 (staple 1-4, 4-11; also: later eluting HPLC isomer composition) [I-2123]",26.9 µM

# Target: T3, B-cat-Halo (beta-catenin HaloTag …)
# Test: cell-based or functional assay
row,Binder,NanoBRET Abs IC50
1,"Ac-[αAllylPro]D[hLeu][B5(15)]DEAAF[hSer][S8]F[Bta]Q-NH2 (staple 1-4, 4-11; not fully specified; printed as Ac-PL3-Asp-Hleu-B5-Asp-Glu-Ala-Ala-Phe-Hse-S8-Phe-BztA-Gln-NH2) [I-1537]",13.9 µM
2,"Ac-[αAllylPro]DQ[B5(15)]DEAAF[hSer][S8]F[Bta]Q-NH2 (staple 1-4, 4-11; not fully specified; printed as Ac-PL3-Asp-Gln-B5-Asp-Glu-Ala-Ala-Phe-Hse-S8-Phe-BztA-Gln-NH2) [I-1543]",> 20 µM
3,"Ac-[αAllylPro]D[hLeu][B5(15)]DEAAFL[S8]F[Bta]Q-NH2 (staple 1-4, 4-11) [I-1536]",18.4 µM
4,"Ac-[αAllylPro]DQ[B5(15)]DEAAF[hSer][S8]F[Bta]Q-NH2 (staple 1-4, 4-11; not fully specified; printed as Ac-PL3-Asp-Gln-B5-Asp-Glu-Ala-Ala-Phe-Hse-S8-Phe-BztA-Gln-NH2) [I-1542]",49.1 µM
5,"Ac-[αAllylPro]D[hSer][B5(15)]DEAAF[hSer][S8]F[Bta]Q-NH2 (staple 1-4, 4-11; not fully specified) [I-1548]",> 20 µM
6,"Ac-[αAllylPro]DF[B5(15)]DEAAFQ[S8]F[Bta]Q-NH2 (staple 1-4, 4-11) [I-1549]",11.6 µM
7,"Ac-[αAllylPro]D[hLeu][B5(15)]DEAAF[hSer][S8]F[Bta]Q-NH2 (staple 1-4, 4-11; not fully specified; printed as Ac-PL3-Asp-Hleu-B5-Asp-Glu-Ala-Ala-Phe-Hse-S8-Phe-BztA-Gln-NH2) [I-1538]",11.8 µM
